Assay results: paper doi:10.1101/2021.07.08.451529 (bioRxiv, 2021)

What was measured:
[1] = molecular target: recombinant C. elegans mitochondrial malate dehydrogenase MDH-2 (F20H11.3), mitochondrial import sequence removed (C. elegans); test: SEC
[2] = molecular target: the molecule itself; test: SEC

Question: “recombinant C. elegans mitochondrial malate dehydrogenase MDH-2 (F20H11.3), mitochondrial import sequence removed (enzyme)” was tested. Which stoichiometry N [1] did it give?
Answer: 2

B1: recombinant C. elegans cytoplasmic malate dehydrogenase MDH-1 (F46E10.10) (enzyme)
chain: MSAPLRVLVTGAAGQIGYSIVIRIADGTVFGKEQPVELVLLDVPQCSNILEGVVFELQDCALPTLFSVVAVTDEKSAFTGIDYAFLVGAMPRREGMERKDLLAANVKIFKSQGKALAEYAKPTTKVIVVGNPANTNAFIAAKYAAGKIPAKNFSAMTRLDHNRALAQLALKTGTTIGNVKNVIIWGNHSGTQFPDVTHATVNKNGTETDAYAAVGDNAFLQGPFIATVQKRGGVIIEKRKLSSAMSAAKAACDHIHDWHFGTKAGQFVSMAVPSDGSYGIPQGLIFSFPVTIEGGEWKIVQGLSFDDFAKGKIAATTKELEEERDDALKACDDANIA
Question: With B1 as the molecule, how does the “stoichiometry N” value [2] read?
Answer: 2
